Source: patent publication US20140105889A1 (published 2014)

T1: human FcγRIIa type R (human, UniProt P12318 36-217)
T1 construct: also called FcgRIIaR; FcγRIIa(R)
T1 chain: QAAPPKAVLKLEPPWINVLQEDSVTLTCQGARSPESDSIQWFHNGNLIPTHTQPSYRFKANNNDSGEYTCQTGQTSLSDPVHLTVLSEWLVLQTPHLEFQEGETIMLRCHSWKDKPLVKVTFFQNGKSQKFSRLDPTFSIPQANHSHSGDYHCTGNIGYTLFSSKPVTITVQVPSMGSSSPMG

T2: human FcγRIIb (human, UniProt P31994 43-217)
T2 construct: also called FcgRIIb; FcγIIB
T2 sequence: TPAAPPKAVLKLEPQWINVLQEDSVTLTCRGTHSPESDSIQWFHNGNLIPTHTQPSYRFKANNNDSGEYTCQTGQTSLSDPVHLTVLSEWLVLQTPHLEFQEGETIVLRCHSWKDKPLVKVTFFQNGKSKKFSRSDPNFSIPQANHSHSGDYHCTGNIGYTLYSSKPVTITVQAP

T3: human FcγRIIa type H (human, UniProt P12318 36-217)
T3 construct: also called FcgRIIaH; FcγRIIa(H)
T3 sequence: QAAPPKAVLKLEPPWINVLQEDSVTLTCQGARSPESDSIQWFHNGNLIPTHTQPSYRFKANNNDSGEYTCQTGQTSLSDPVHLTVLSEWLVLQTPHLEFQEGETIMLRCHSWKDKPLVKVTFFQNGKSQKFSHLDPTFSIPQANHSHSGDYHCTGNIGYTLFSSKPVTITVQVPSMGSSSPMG

T4: human FcγRIIb (human, UniProt P31994 43-217, limits assumed)
T4 construct: also called FcgRIIb; FcγIIB
T4 sequence: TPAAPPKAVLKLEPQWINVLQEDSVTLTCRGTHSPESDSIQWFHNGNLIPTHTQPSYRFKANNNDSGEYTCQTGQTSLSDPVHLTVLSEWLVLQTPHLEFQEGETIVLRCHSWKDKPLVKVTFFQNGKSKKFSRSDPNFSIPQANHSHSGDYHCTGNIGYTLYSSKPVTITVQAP

T5: human FcγRIIa type H (human, UniProt P12318 36-217)
T5 construct: also called FcgRIIaH; FcγRIIa(H)
T5 sequence: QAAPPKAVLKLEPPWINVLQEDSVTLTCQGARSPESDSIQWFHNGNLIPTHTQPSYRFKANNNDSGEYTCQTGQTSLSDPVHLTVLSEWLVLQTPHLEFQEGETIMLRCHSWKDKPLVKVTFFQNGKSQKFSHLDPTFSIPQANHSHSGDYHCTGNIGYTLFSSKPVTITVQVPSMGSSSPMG


Key:
[1] = molecular target: T6, human FcγRIIIa type V (human, UniProt P08637 17-208, limits assumed); assay: SPR (Biacore), FcγR over captured antibody; binding amount / that of IL6R-BF648/IL6R-L x100
T6 construct: Allotype V158 was used; also called FcgRIIIaV; FcγRIIIa(V)
Method: (§1) According to the following method, relative binding activities were calculated for the results of analyzing interactions with the respective FcγRs.

[2] = molecular target: T1, human FcγRIIa type R; assay: as above
Method: as §1

[3] = molecular target: T2, human FcγRIIb; assay: as above
Method: as §1

[4] = molecular target: T3, human FcγRIIa type H; assay: as above
Method: as §1

[5] = molecular target: T7, human FcγRIa (human, UniProt P12314 16-292, limits assumed); assay: as above
T7 construct: also called FcgRIa; CD64
T7 sequence (P12314 16-292 limits assumed): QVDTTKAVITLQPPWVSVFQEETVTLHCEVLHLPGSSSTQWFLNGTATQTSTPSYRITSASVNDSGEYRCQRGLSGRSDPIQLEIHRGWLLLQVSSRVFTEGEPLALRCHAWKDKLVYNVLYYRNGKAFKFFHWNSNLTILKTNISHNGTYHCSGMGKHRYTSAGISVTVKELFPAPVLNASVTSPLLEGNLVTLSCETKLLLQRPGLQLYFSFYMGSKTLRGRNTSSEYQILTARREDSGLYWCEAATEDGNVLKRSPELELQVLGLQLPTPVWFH
Method: as §1

[6] = molecular target: T8, human FcγRIa (human, UniProt P12314 16-292, limits assumed); assay: SPR (Biacore); binding amount divided by that of control IL6R-BF648/IL6R-L, x100
T8 construct: also called FcgRIa; CD64
T8 sequence (P12314 16-292 limits assumed): as above
Method: as §1

[7] = molecular target: T4, human FcγRIIb; assay: as above
Method: as §1

[8] = molecular target: T5, human FcγRIIa type H; assay: as above
Method: as §1

T6 sequence (P08637 other isoform, or with tags, fused parts or gaps limits assumed): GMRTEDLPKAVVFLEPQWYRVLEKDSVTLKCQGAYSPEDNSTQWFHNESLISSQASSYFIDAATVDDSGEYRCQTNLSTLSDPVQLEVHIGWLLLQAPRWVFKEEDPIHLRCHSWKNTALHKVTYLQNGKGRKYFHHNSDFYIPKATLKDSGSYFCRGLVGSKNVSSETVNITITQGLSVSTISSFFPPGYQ

Row | Binder | relative binding activity [1] | relative binding activity [2] | relative binding activity [3] | relative binding activity [4] | relative binding activity [5] | relative binding activity [6] | relative binding activity [7] | relative binding activity [8]
1 | IL6R-G1d/IL6R-L (antibody, human IgG1, also called IgG1) heavy: not shown light: DIQMTQSPSSLSASVGDRVTITCRASQDISSYLNWYQQKPGKAPKLLIYYTSRLHSGVPSRFSGSGSGTDFTFTISSLQPEDIATYYCQQGNTLPYTFGQGTKVEIK | 3350 % of IL6R-BF648/IL6R-L | 650 % of IL6R-BF648/IL6R-L | 62 % of IL6R-BF648/IL6R-L | 1670 % of IL6R-BF648/IL6R-L | 140 % of IL6R-BF648/IL6R-L | – | – | –
2 | IL6R-BP201/IL6R-L (antibody, human IgG1, The common L chain is IL6R-L; copies: 2 + 2) heavy: QVQLQESGPGLVKPSETLSLTCAVSGHSISHDHAWSWVRQPPGEGLEWIGFISYSGITNYNPSLQGRVTISRDNSKNTLYLQMNSLRAEDTAVYYCARSLARTTAMDYWGEGTLVTVSSASTKGPSVFPLAPSSKSTSGGTAALGCLVKDYFPEPVTVSWNSGALTSGVHTFPAVLQSSGLYSLSSVVTVPSSSLGTQTYICNVNHKPSNTKVDKKVEPKSCDKTHTCPPCPAPDLLGDDSVFLFPPKPKDTLMISRTPEVTCVVVDVSHEDGEVKFNWYVDGVEVHNAKTKPREEQYNSTYRVVSVLTVLHQDWLNGKEYKCKVSNKALPRPIEKTISKAKGQPREPQVYTLPPSRDELTKNQVSLTCLVKGFYPSDIAVEWESNGQPENNYKTTPPVLDSDGSFFLYSKLTVDKSRWQQGNVFSCSVMHEALHNHYTQESLSLSP light: DIQMTQSPSSLSASVGDRVTITCRASQDISSYLNWYQQKPGKAPKLLIYYTSRLHSGVPSRFSGSGSGTDFTFTISSLQPEDIATYYCQQGNTLPYTFGQGTKVEIK | – | – | – | – | – | 57 % of IL6R-BF648/IL6R-L | 186 % of IL6R-BF648/IL6R-L | 359 % of IL6R-BF648/IL6R-L
3 | IL6R-BP188/IL6R-L (antibody, human IgG1, The common L chain is IL6R-L; copies: 2 + 2) heavy: QVQLQESGPGLVKPSETLSLTCAVSGHSISHDHAWSWVRQPPGEGLEWIGFISYSGITNYNPSLQGRVTISRDNSKNTLYLQMNSLRAEDTAVYYCARSLARTTAMDYWGEGTLVTVSSASTKGPSVFPLAPSSKSTSGGTAALGCLVKDYFPEPVTVSWNSGALTSGVHTFPAVLQSSGLYSLSSVVTVPSSSLGTQTYICNVNHKPSNTKVDKKVEPKSCDKTHTCPPCPAPDLLGDDSVFLFPPKPKDTLMISRTPEVTCVVVDVSDEDGEVKFNWYVDGVEVHNAKTKPREEQYNSTYRVVSVLTVLHQDWLNGKEYKCKVSNKALPKPIEKTISKAKGQPREPQVYTLPPSRDELTKNQVSLTCLVKGFYPSDIAVEWESNGQPENNYKTTPPVLDSDGSFFLYSKLTVDKSRWQQGNVFSCSVMHEALHNHYTQESLSLSP light: DIQMTQSPSSLSASVGDRVTITCRASQDISSYLNWYQQKPGKAPKLLIYYTSRLHSGVPSRFSGSGSGTDFTFTISSLQPEDIATYYCQQGNTLPYTFGQGTKVEIK | – | – | – | – | – | 74 % of IL6R-BF648/IL6R-L | 179 % of IL6R-BF648/IL6R-L | –
4 | IL6R-BP202/IL6R-L (antibody, human IgG1, The common L chain is IL6R-L; copies: 2 + 2) heavy: QVQLQESGPGLVKPSETLSLTCAVSGHSISHDHAWSWVRQPPGEGLEWIGFISYSGITNYNPSLQGRVTISRDNSKNTLYLQMNSLRAEDTAVYYCARSLARTTAMDYWGEGTLVTVSSASTKGPSVFPLAPSSKSTSGGTAALGCLVKDYFPEPVTVSWNSGALTSGVHTFPAVLQSSGLYSLSSVVTVPSSSLGTQTYICNVNHKPSNTKVDKKVEPKSCDKTHTCPPCPAPELLGDDSVFLFPPKPKDTLMISRTPEVTCVVVDVSHEDGEVKFNWYVDGVEVHNAKTKPREEQYNSTYRVVSVLTVLHQDWLNGKEYKCKVSNAALPRPIEKTISKAKGQPREPQVYTLPPSRDELTKNQVSLTCLVKGFYPSDIAVEWESNGQPENNYKTTPPVLDSDGSFFLYSKLTVDKSRWQQGNVFSCSVMHEALHNHYTQESLSLSP light: DIQMTQSPSSLSASVGDRVTITCRASQDISSYLNWYQQKPGKAPKLLIYYTSRLHSGVPSRFSGSGSGTDFTFTISSLQPEDIATYYCQQGNTLPYTFGQGTKVEIK | – | – | – | – | – | 43 % of IL6R-BF648/IL6R-L | 185 % of IL6R-BF648/IL6R-L | 285 % of IL6R-BF648/IL6R-L
5 | IL6R-BP204/IL6R-L (antibody, human IgG1, The common L chain is IL6R-L; copies: 2 + 2) heavy: QVQLQESGPGLVKPSETLSLTCAVSGHSISHDHAWSWVRQPPGEGLEWIGFISYSGITNYNPSLQGRVTISRDNSKNTLYLQMNSLRAEDTAVYYCARSLARTTAMDYWGEGTLVTVSSASTKGPSVFPLAPSSKSTSGGTAALGCLVKDYFPEPVTVSWNSGALTSGVHTFPAVLQSSGLYSLSSVVTVPSSSLGTQTYICNVNHKPSNTKVDKKVEPKSCDKTHTCPPCPAPDLLGGDSVFLFPPKPKDTLMISRTPEVTCVVVDVSHEDGEVKFNWYVDGVEVHNAKTKPREEQYNSTYRVVSVLTVLHQDWLNGKEYKCKVSNAALPRPIEKTISKAKGQPREPQVYTLPPSRDELTKNQVSLTCLVKGFYPSDIAVEWESNGQPENNYKTTPPVLDSDGSFFLYSKLTVDKSRWQQGNVFSCSVMHEALHNHYTQESLSLSP light: DIQMTQSPSSLSASVGDRVTITCRASQDISSYLNWYQQKPGKAPKLLIYYTSRLHSGVPSRFSGSGSGTDFTFTISSLQPEDIATYYCQQGNTLPYTFGQGTKVEIK | – | – | – | – | – | 110 % of IL6R-BF648/IL6R-L | 165 % of IL6R-BF648/IL6R-L | 137 % of IL6R-BF648/IL6R-L
6 | IL6R-BP193/IL6R-L (antibody, human IgG1, The common L chain is IL6R-L; copies: 2 + 2) heavy: QVQLQESGPGLVKPSETLSLTCAVSGHSISHDHAWSWVRQPPGEGLEWIGFISYSGITNYNPSLQGRVTISRDNSKNTLYLQMNSLRAEDTAVYYCARSLARTTAMDYWGEGTLVTVSSASTKGPSVFPLAPSSKSTSGGTAALGCLVKDYFPEPVTVSWNSGALTSGVHTFPAVLQSSGLYSLSSVVTVPSSSLGTQTYICNVNHKPSNTKVDKKVEPKSCDKTHTCPPCPAPDLLGGDSVFLFPPKPKDTLMISRTPEVTCVVVDVSDEDGEVKFNWYVDGVEVHNAKTKPREEQYNSTYRVVSVLTVLHQDWLNGKEYKCKVSNKALPKPIEKTISKAKGQPREPQVYTLPPSRDELTKNQVSLTCLVKGFYPSDIAVEWESNGQPENNYKTTPPVLDSDGSFFLYSKLTVDKSRWQQGNVFSCSVMHEALHNHYTQESLSLSP light: DIQMTQSPSSLSASVGDRVTITCRASQDISSYLNWYQQKPGKAPKLLIYYTSRLHSGVPSRFSGSGSGTDFTFTISSLQPEDIATYYCQQGNTLPYTFGQGTKVEIK | – | – | – | – | – | 113 % of IL6R-BF648/IL6R-L | 173 % of IL6R-BF648/IL6R-L | 154 % of IL6R-BF648/IL6R-L
7 | IL6R-BP200/IL6R-L (antibody, copies: 2 + 2) heavy: QVQLQESGPGLVKPSETLSLTCAVSGHSISHDHAWSWVRQPPGEGLEWIGFISYSGITNYNPSLQGRVTISRDNSKNTLYLQMNSLRAEDTAVYYCARSLARTTAMDYWGEGTLVTVSSASTKGPSVFPLAPSSKSTSGGTAALGCLVKDYFPEPVTVSWNSGALTSGVHTFPAVLQSSGLYSLSSVVTVPSSSLGTQTYICNVNHKPSNTKVDKKVEPKSCDKTHTCPPCPAPDYLGDDSVFLFPPKPKDTLMISRTPEVTCVVVDVSHEDGEVKFNWYVDGVEVHNAKTKPREEQYNSTYRVVSVLTVLHQDWLNGKEYKCKVSNDALPRPIEKTISKAKGQPREPQVYTLPPSRDELTKNQVSLTCLVKGFYPSDIAVEWESNGQPENNYKTTPPVLDSDGSFFLYSKLTVDKSRWQQGNVFSCSVMHEALHNHYTQESLSLSP light: DIQMTQSPSSLSASVGDRVTITCRASQDISSYLNWYQQKPGKAPKLLIYYTSRLHSGVPSRFSGSGSGTDFTFTISSLQPEDIATYYCQQGNTLPYTFGQGTKVEIK | – | – | – | – | – | 60 % of IL6R-BF648/IL6R-L | 188 % of IL6R-BF648/IL6R-L | 517 % of IL6R-BF648/IL6R-L
8 | IL6R-BP205/IL6R-L (antibody, human IgG1, The common L chain is IL6R-L; copies: 2 + 2) heavy: QVQLQESGPGLVKPSETLSLTCAVSGHSISHDHAWSWVRQPPGEGLEWIGFISYSGITNYNPSLQGRVTISRDNSKNTLYLQMNSLRAEDTAVYYCARSLARTTAMDYWGEGTLVTVSSASTKGPSVFPLAPSSKSTSGGTAALGCLVKDYFPEPVTVSWNSGALTSGVHTFPAVLQSSGLYSLSSVVTVPSSSLGTQTYICNVNHKPSNTKVDKKVEPKSCDKTHTCPPCPAPDLLGGDSVFLFPPKPKDTLMISRTPEVTCVVVDVSHEDGEVKFNWYVDGVEVHNAKTKPREEQDNSTYRVVSVLTVLHQDWLNGKEYKCKVSNKALPRPIEKTISKAKGQPREPQVYTLPPSRDELTKNQVSLTCLVKGFYPSDIAVEWESNGQPENNYKTTPPVLDSDGSFFLYSKLTVDKSRWQQGNVFSCSVMHEALHNHYTQESLSLSP light: DIQMTQSPSSLSASVGDRVTITCRASQDISSYLNWYQQKPGKAPKLLIYYTSRLHSGVPSRFSGSGSGTDFTFTISSLQPEDIATYYCQQGNTLPYTFGQGTKVEIK | – | – | – | – | – | 97 % of IL6R-BF648/IL6R-L | 167 % of IL6R-BF648/IL6R-L | 108 % of IL6R-BF648/IL6R-L
